From article PMC12018048, “Intranasal kisspeptin administration rapidly stimulates gonadotropin release in humans” (eBioMedicine, 2025)

How the values were obtained:
serum LH = conditions: cited from earlier work
Description: This was the first study to examine the effects of intranasal kisspeptin administration on reproductive hormone secretion in humans. […] We have previously examined a single intravenous bolus of 6.4, 12.8, and 25.6 nmol/kg of kisspeptin-54 in healthy men.[59] In that study, peak LH levels occurred 4–6 h after intravenous kisspeptin administration with a maximal increase from baseline of 8–10 IU/L for the three doses tested.[59] In the current study, a far more rapid increase in serum LH was observed after intranasal kisspeptin for all four doses tested with peak LH stimulation (4.45 IU/L abo ...

[1] = Safety assessments in healthy participants and patients (adverse events, blood pressure, heart rate); type: in vivo, human; conditions: intranasal; for Side effects or adverse events (of any severity): all participants in all study groups (healthy men, healthy women, patients with HA)
Description: All studies commenced at 08:00 to control for circadian hormonal changes. Participants were instructed to abstain from alcohol, caffeine, and sexual activities from 22:00 preceding each study visit. On arrival, an intravenous cannula was inserted into one antecubital fossa, and blood was sampled at timepoints −30, −15, and 0 min, before intranasal administration of kisspeptin-54 or 0.9% saline (placebo). Following participant education (described below), healthy men self-administered the following 5 interventions under supervision in random order via the intranasal route: 3.2, 6.4, 12.8, and 25.6 nmol/kg of kisspeptin-54, or placebo. Healthy women and patients with HA attended for the same protocol comparing 12.8 nmol/kg of kisspeptin-54 and placebo in random order. After administration of kisspeptin-54 or placebo at timepoint 0 min, serum levels of LH, FSH, and testosterone (in men), or oestradiol and progesterone (in women) were measured every 15 min for 4 h. Heart rate, blood pressure, and the presence of adverse symptoms were recorded every 15 min.
The primary outcome measure was change in serum LH following intranasal administration of kisspeptin compared to placebo. The secondary outcome measures were changes in serum FSH, as well as testosterone [in men], and oestradiol and progesterone [in women] following intranasal administration of kisspeptin compared to placebo. In addition, safety assessments were performed that included adverse event recording, blood pressure, and heart rate measurements.

[2] = Stability of kisspeptin-54 solutions for nasal delivery; type: physicochemical; conditions: 2 M HCL or phosphate buffer at 60 °C for 72 h, HPLC-UV
[3] = as above; type: physicochemical; conditions: for Reduction of the initial concentration: after 60 days, HPLC; for % of initial concentration: chemical stability, 3.5 mg/mL in 0.9% saline, HPLC-UV 220 nm, mean ± SEM, N = 3
Description: Kisspeptin-54 3.5 mg/mL solutions, equivalent to the lowest dose used in the human clinical study, were prepared and aliquoted into glass nasal spray devices and sealed amber glass vials (airtight, light protected control). The test materials were stored upright in a single location (4 °C refrigerator with temperature monitoring) with minimal manipulation or movement for 60 days. On each day of analysis, three aliquots were sampled from each container and analysed by HPLC.
Each kisspeptin-54 sample was assayed in triplicate using a Waters 2795 Separation Module HPLC equipped with Waters 2996 Photodiode Array Detector and a Luna® 3 μm C18 100 Å LC Column 150 × 4.6 mm with trimethylsilyl (TMS) end capping used. Injection volume was 25 μL and the mobile phase was a gradient using eluent A (0.05% trifluoroacetic acid (TFA):1% acetonitrile (ACN): 98.95% H20) and eluent B (0.05% TFA in MeOH/ACN 1:1(V/V)) from 20 to 60% eluent B with a flow rate of 1 mL/min and a run time of 15 min. Column temperature was set at 40 °C and ultraviolet (UV) detection at 220 nm. The assay was validated for linearity (r = 0.993), accuracy and precision in the range 0.3–0.7 mg/mL.

[4] = human, cited from earlier work
Description: This was a randomised, double-blinded, crossover, placebo-controlled clinical study (Fig. 1, Fig. 2, Fig. 3a). Participants were admitted to the Clinical Research Unit (Imperial College Healthcare NHS Trust) and completed five (in healthy men) or two (in healthy women and patients with HA) study visits. […] Study visits in healthy women were conducted in the follicular phase of the menstrual cycle (i.e., days 2–10 inclusive) to contr ... || page 10: Research Governance and Integrity Team Throughout the study there will be at least one physician available 24 hours per day via a direct line, with a second physician on back up, and a secondary direct line to one of the senior physicians. […] Kisspeptin is rapidly cleared (11, 12) and participants would not be anticipated to experience any delayed effects on completion of the study visit. The Chief Investigato ...

[5] = design: method as in PMID 37467734; conditions: intravenous and subcutaneous routes, over 1000 healthy men and women and patients; cited from earlier work
LH = conditions: mice, intraperitoneal route, 1 nM; cited from earlier work

Substance: Kisspeptin-54
- Maximal increase from baseline in LH (serum LH; healthy men, single intravenous bolus of 6.4, 12.8, and 25.6 nmol/kg): 8–10 IU/L
- Increase in serum LH, mean (serum LH; healthy volunteers, intravenous, standard deviation 0.4 IU/L): 10.2 IU/L
- Side effects or adverse events (of any severity) [1]: without any side effects or adverse events
- Side effects or adverse events (of any severity) ([1]; listed as kisspeptin): no side effects or adverse events
- Effect on blood pressure or heart rate measurements ([1]; any of the doses administered, recorded every 15 min): no effect
- Forced degradation (HPLC assay specificity) [2]: loss or reduction of the kisspeptin peak
- Time within pharmaceutically accepted limits for stability ([3]; 0.9% saline solution, 4 °C): up to 60 days
- Appearance of the solution (clear when freshly made) ([3]; 0.9% saline, 4 °C, 60 days of storage, either container type): no change was observed
- Reduction of the initial concentration ([3]; 0.9% saline, 4 °C, glass nasal spray devices): 5.4%
- Reduction of the initial concentration ([3]; 0.9% saline, 4 °C, sealed amber glass vials): 5.0%
- % of initial concentration ([3]; 4 °C in nasal spray, 4 days): 98.06 ± 1.11%
- % of initial concentration ([3]; 4 °C in nasal spray, 7 days): 98.28 ± 0.69%
- % of initial concentration ([3]; 4 °C in nasal spray, 14 days): 97.90 ± 0.67%
- % of initial concentration ([3]; 4 °C in nasal spray, 28 days): 96.11 ± 0.51%
- % of initial concentration ([3]; 4 °C in nasal spray, 60 days): 94.56 ± 1.67%
- % of initial concentration ([3]; 4 °C in sealed amber vial, 4 days): 98.94 ± 0.57%
- % of initial concentration ([3]; 4 °C in sealed amber vial, 7 days): 98.69 ± 0.58%
- % of initial concentration ([3]; 4 °C in sealed amber vial, 14 days): 97.91 ± 0.64%
- % of initial concentration ([3]; 4 °C in sealed amber vial, 28 days): 97.32 ± 0.56%
- % of initial concentration ([3]; 4 °C in sealed amber vial, 60 days): 95.01 ± 1.45%
- Intravenous half-life ([4]; study protocol (supplement 2)): 28 min
- Circulating half-life [4]: 27.6 min
- Adverse effects [5]: without any observed adverse effects
- Effect on LH (LH): robustly increases LH
